Source: patent US20240049668A1 (VILMORIN AND CIE, published 2024)

T1: Movement Protein of ToBRFV (Tomato Brown Rugose Fruit Virus …, UniProt A0A0S2SZW1 1-266)
T1 sequence: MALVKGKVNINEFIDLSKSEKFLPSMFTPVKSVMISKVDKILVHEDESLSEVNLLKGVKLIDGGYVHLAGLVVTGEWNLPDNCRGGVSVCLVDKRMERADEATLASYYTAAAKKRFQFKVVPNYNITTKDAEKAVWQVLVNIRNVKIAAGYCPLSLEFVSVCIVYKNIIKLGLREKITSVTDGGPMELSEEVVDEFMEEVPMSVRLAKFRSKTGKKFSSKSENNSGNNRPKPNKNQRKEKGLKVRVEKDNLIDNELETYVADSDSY

B1: TM-2-2 variant pJL 480I (848 R, 857 I) (receptor)
chain: MAEILLTSVINKSVEIAGNLLIQEGKRLYWLKEDIDWLQREMRHIRSYVDNAKAKEAGGDSRVKNLLKDIQELAGDVEDLLDDFLPKIQQSNKFNYCLKRSSFADEFAMEIEKIKRRVVDIDRIRKTYNIIDTDNNNDDCVLLDRRRLFLHADETEIIGLDDDFNMLQAKLLNQDLHYGVVSIVGMPGLGKTTLAKKLYRLIRDQFECSGLVYVSQQPRASEILLDIAKQIGLTEQKMKENLEDNLRSLLKIKRYVILLDDIWDVEIWDDLKLVLPECDSKVGSRMIITSRNSNVGRYIGGESSLHALQPLESEKSFELFTKKIFNFDDNNSWANASPDLVNIGRNIVGRCGGIPLAIVVTAGMLRARERTEHAWNRVLESMGHKVQDGCAKVLALSYNDLPIASRPCFLYFGLYPEDHEIRAFDLINMWIAEKFIVVNSGNRREAEDLAEDVLNDLVSRNLIQLAKRTYNGRISSCRIHDLLHSLCVDLAKESNFFHTAHDAFGDPGNVARLRRITFYSDNVMIEFFRSNPKLEKLRVLFCFAKDPSIFSHMAYFDFKLLHTLVVVMSQSFQAYVTIPSKFGNMTCLRYLRLEGNICGKLPNSIVKLTRLETIDIDRRSLIQPPSGVWESKHLRHLCYRDYGQACNSCFSISSFYPNIYSLHPNNLQTLMWIPDKFFEPRLLHRLINLRKLGILGVSNSTVKMLSIFSPVLKALEVLKLSFSSDPSEQIKLSSYPHIAKLHLNVNRTMALNSQSFPPNLIKLTLAYFSVDRYILAVLKTFPKLRKLKMFICKYNEEKMDLSGEANGYSFPQLEVLHIHSPNGLSEVTCTDDVSMPKLKKLLLTGFHRRISLSERLIKLSK
B2: TM-2-2 variant L12_16 (769 E) (receptor)
chain: MAEILLTSVINKSVEIAGNLLIQEGKRLYWLKEDIDWLQREMRHIRSYVDNAKAKEAGGDSRVKNLLKDIQELAGDVEDLLDDFLPKIQQSNKFNYCLKRSSFADEFAMEIEKIKRRVVDIDRIRKTYNIIDTDNNNDDCVLLDRRRLFLHADETEIIGLDDDFNMLQAKLLNQDLHYGVVSIVGMPGLGKTTLAKKLYRLIRDQFECSGLVYVSQQPRASEILLDIAKQIGLTEQKMKENLEDNLRSLLKIKRYVILLDDIWDVEIWDDLKLVLPECDSKVGSRMIITSRNSNVGRYIGGESSLHALQPLESEKSFELFTKKIFNFDDNNSWANASPDLVNIGRNIVGRCGGIPLAIVVTAGMLRARERTEHAWNRVLESMGHKVQDGCAKVLALSYNDLPIASRPCFLYFGLYPEDHEIRAFDLINMWIAEKFIVVNSGNRREAEDLAEDVLNDLVSRNLIQLAKRTYNGRISSCRIHDLLHSLCVDLAKESNFFHTAHDAFGDPGNVARLRRITFYSDNVMIEFFRSNPKLEKLRVLFCFAKDPSIFSHMAYFDFKLLHTLVVVMSQSFQAYVTIPSKFGNMTCLRYLRLEGNICGKLPNSIVKLTRLETIDIDRRSLIQPPSGVWESKHLRHLCYRDYGQACNSCFSISSFYPNIYSLHPNNLQTLMWIPDKFFEPRLLHRLINLRKLGILGVSNSTVKMLSIFSPVLKALEVLKLSFSSDPSEQIKLSSYPHIAKLHLNVNRTMALNSQSFPPNLIKLTLAYFEVDRYILAVLKTFPKLRKLKMFICKYNEEKMDLSGEANGYSFPQLEVLHIHSPNGLSEVTCTDDVSMPKLKKLLLTGFHCRISLSERLKKLSK
B3: TM-2-2 variant L12_12 (769 R) (receptor)
chain: MAEILLTSVINKSVEIAGNLLIQEGKRLYWLKEDIDWLQREMRHIRSYVDNAKAKEAGGDSRVKNLLKDIQELAGDVEDLLDDFLPKIQQSNKFNYCLKRSSFADEFAMEIEKIKRRVVDIDRIRKTYNIIDTDNNNDDCVLLDRRRLFLHADETEIIGLDDDFNMLQAKLLNQDLHYGVVSIVGMPGLGKTTLAKKLYRLIRDQFECSGLVYVSQQPRASEILLDIAKQIGLTEQKMKENLEDNLRSLLKIKRYVILLDDIWDVEIWDDLKLVLPECDSKVGSRMIITSRNSNVGRYIGGESSLHALQPLESEKSFELFTKKIFNFDDNNSWANASPDLVNIGRNIVGRCGGIPLAIVVTAGMLRARERTEHAWNRVLESMGHKVQDGCAKVLALSYNDLPIASRPCFLYFGLYPEDHEIRAFDLINMWIAEKFIVVNSGNRREAEDLAEDVLNDLVSRNLIQLAKRTYNGRISSCRIHDLLHSLCVDLAKESNFFHTAHDAFGDPGNVARLRRITFYSDNVMIEFFRSNPKLEKLRVLFCFAKDPSIFSHMAYFDFKLLHTLVVVMSQSFQAYVTIPSKFGNMTCLRYLRLEGNICGKLPNSIVKLTRLETIDIDRRSLIQPPSGVWESKHLRHLCYRDYGQACNSCFSISSFYPNIYSLHPNNLQTLMWIPDKFFEPRLLHRLINLRKLGILGVSNSTVKMLSIFSPVLKALEVLKLSFSSDPSEQIKLSSYPHIAKLHLNVNRTMALNSQSFPPNLIKLTLAYFRVDRYILAVLKTFPKLRKLKMFICKYNEEKMDLSGEANGYSFPQLEVLHIHSPNGLSEVTCTDDVSMPKLKKLLLTGFHCRISLSERLKKLSK
B4: TM-2-2 variant L12_4 (769 F) (receptor)
chain: MAEILLTSVINKSVEIAGNLLIQEGKRLYWLKEDIDWLQREMRHIRSYVDNAKAKEAGGDSRVKNLLKDIQELAGDVEDLLDDFLPKIQQSNKFNYCLKRSSFADEFAMEIEKIKRRVVDIDRIRKTYNIIDTDNNNDDCVLLDRRRLFLHADETEIIGLDDDFNMLQAKLLNQDLHYGVVSIVGMPGLGKTTLAKKLYRLIRDQFECSGLVYVSQQPRASEILLDIAKQIGLTEQKMKENLEDNLRSLLKIKRYVILLDDIWDVEIWDDLKLVLPECDSKVGSRMIITSRNSNVGRYIGGESSLHALQPLESEKSFELFTKKIFNFDDNNSWANASPDLVNIGRNIVGRCGGIPLAIVVTAGMLRARERTEHAWNRVLESMGHKVQDGCAKVLALSYNDLPIASRPCFLYFGLYPEDHEIRAFDLINMWIAEKFIVVNSGNRREAEDLAEDVLNDLVSRNLIQLAKRTYNGRISSCRIHDLLHSLCVDLAKESNFFHTAHDAFGDPGNVARLRRITFYSDNVMIEFFRSNPKLEKLRVLFCFAKDPSIFSHMAYFDFKLLHTLVVVMSQSFQAYVTIPSKFGNMTCLRYLRLEGNICGKLPNSIVKLTRLETIDIDRRSLIQPPSGVWESKHLRHLCYRDYGQACNSCFSISSFYPNIYSLHPNNLQTLMWIPDKFFEPRLLHRLINLRKLGILGVSNSTVKMLSIFSPVLKALEVLKLSFSSDPSEQIKLSSYPHIAKLHLNVNRTMALNSQSFPPNLIKLTLAYFFVDRYILAVLKTFPKLRKLKMFICKYNEEKMDLSGEANGYSFPQLEVLHIHSPNGLSEVTCTDDVSMPKLKKLLLTGFHCRISLSERLKKLSK
B5: TM-2-2 variant L12_11 (769 G) (receptor)
chain: MAEILLTSVINKSVEIAGNLLIQEGKRLYWLKEDIDWLQREMRHIRSYVDNAKAKEAGGDSRVKNLLKDIQELAGDVEDLLDDFLPKIQQSNKFNYCLKRSSFADEFAMEIEKIKRRVVDIDRIRKTYNIIDTDNNNDDCVLLDRRRLFLHADETEIIGLDDDFNMLQAKLLNQDLHYGVVSIVGMPGLGKTTLAKKLYRLIRDQFECSGLVYVSQQPRASEILLDIAKQIGLTEQKMKENLEDNLRSLLKIKRYVILLDDIWDVEIWDDLKLVLPECDSKVGSRMIITSRNSNVGRYIGGESSLHALQPLESEKSFELFTKKIFNFDDNNSWANASPDLVNIGRNIVGRCGGIPLAIVVTAGMLRARERTEHAWNRVLESMGHKVQDGCAKVLALSYNDLPIASRPCFLYFGLYPEDHEIRAFDLINMWIAEKFIVVNSGNRREAEDLAEDVLNDLVSRNLIQLAKRTYNGRISSCRIHDLLHSLCVDLAKESNFFHTAHDAFGDPGNVARLRRITFYSDNVMIEFFRSNPKLEKLRVLFCFAKDPSIFSHMAYFDFKLLHTLVVVMSQSFQAYVTIPSKFGNMTCLRYLRLEGNICGKLPNSIVKLTRLETIDIDRRSLIQPPSGVWESKHLRHLCYRDYGQACNSCFSISSFYPNIYSLHPNNLQTLMWIPDKFFEPRLLHRLINLRKLGILGVSNSTVKMLSIFSPVLKALEVLKLSFSSDPSEQIKLSSYPHIAKLHLNVNRTMALNSQSFPPNLIKLTLAYFGVDRYILAVLKTFPKLRKLKMFICKYNEEKMDLSGEANGYSFPQLEVLHIHSPNGLSEVTCTDDVSMPKLKKLLLTGFHCRISLSERLKKLSK
B6: TM-2-2 variant L12_3 (769 V) (receptor)
chain: MAEILLTSVINKSVEIAGNLLIQEGKRLYWLKEDIDWLQREMRHIRSYVDNAKAKEAGGDSRVKNLLKDIQELAGDVEDLLDDFLPKIQQSNKFNYCLKRSSFADEFAMEIEKIKRRVVDIDRIRKTYNIIDTDNNNDDCVLLDRRRLFLHADETEIIGLDDDFNMLQAKLLNQDLHYGVVSIVGMPGLGKTTLAKKLYRLIRDQFECSGLVYVSQQPRASEILLDIAKQIGLTEQKMKENLEDNLRSLLKIKRYVILLDDIWDVEIWDDLKLVLPECDSKVGSRMIITSRNSNVGRYIGGESSLHALQPLESEKSFELFTKKIFNFDDNNSWANASPDLVNIGRNIVGRCGGIPLAIVVTAGMLRARERTEHAWNRVLESMGHKVQDGCAKVLALSYNDLPIASRPCFLYFGLYPEDHEIRAFDLINMWIAEKFIVVNSGNRREAEDLAEDVLNDLVSRNLIQLAKRTYNGRISSCRIHDLLHSLCVDLAKESNFFHTAHDAFGDPGNVARLRRITFYSDNVMIEFFRSNPKLEKLRVLFCFAKDPSIFSHMAYFDFKLLHTLVVVMSQSFQAYVTIPSKFGNMTCLRYLRLEGNICGKLPNSIVKLTRLETIDIDRRSLIQPPSGVWESKHLRHLCYRDYGQACNSCFSISSFYPNIYSLHPNNLQTLMWIPDKFFEPRLLHRLINLRKLGILGVSNSTVKMLSIFSPVLKALEVLKLSFSSDPSEQIKLSSYPHIAKLHLNVNRTMALNSQSFPPNLIKLTLAYFVVDRYILAVLKTFPKLRKLKMFICKYNEEKMDLSGEANGYSFPQLEVLHIHSPNGLSEVTCTDDVSMPKLKKLLLTGFHCRISLSERLKKLSK

The binders below were run against T1, Movement Protein of ToBRFV (assay: cell-based or functional assay).
B1 was tested, and the “HR to MP Rugose” value was less than 1 HR scale 0-4.

Biological target: T1, Movement Protein of ToBRFV
Assay: cell-based or functional assay
Remark: another data set of the same source
B2 was tested, and the “HR to MP Rugose” value was less than 1 HR scale 0-4.
For B3, the “HR to MP Rugose” value was less than 1 HR scale 0-4.
In the case of B4, the “HR to MP Rugose” value is reported as less than 1 HR scale 0-4.
With B5 the “HR to MP Rugose” value was less than 1 HR scale 0-4.
In the case of B6, the “HR to MP Rugose” value is reported as less than 1 HR scale 0-4.
